In patent US12173061B2, “Compositions and methods for treatment of chronic lung diseases” (Board of Regents, The University of Texas System, priority 2021, dated 2024):

System: BLM-induced pulmonary fibrosis
Test: BLM-induced established pulmonary fibrosis in mice, treatment d14-d21
Format: in vivo
Details: for BLM-induced pulmonary fibrosis (overall): mice, 1.0 U/kg BLM IT, protein 7.5 mg/kg/d IP daily for 7 days starting d14; for BLM-induced pulmonary fibrosis (overall) / lung compliance / lung elastance: d21; for BLM-induced fibrogenic marker proteins (Col1, FN, TN-C, α-SMA) in whole lung homogenates / body weight / collagen and other extracellular matrix deposits (Trichrome staining of lung sections) / fibrogenic marker transcripts in whole lung homogenates / lung weight / lung compliance / lung elastance / whole lung total hydroxyproline: protein 7.5 mg/kg/d IP, 7 days starting d14 after BLM; for lung compliance / lung elastance: flexiVent; for whole lung total hydroxyproline: lung homogenates
Description: FIGS. 9A-9O. M9 peptide and protein mitigated BLM-induced pulmonary fibrosis. Mice exposed to saline or 1.0 U/kg BLM by intratracheal instillation were treated with or without M9 peptide HGHVDPVKTPKI (SEQ ID NO: 4) (10 mg/kg/d) and M9 protein (SEQ ID NO: 1) 7.5 mg/kg/d) via IP injection daily for 7 days starting d14 after BLM injury. FIG. 9A: Representative micro-CT images at d21 after BLM exposure. FIG. 9B: Lung volumes were measured by quantitative-CT renditions. Lung compliance (FIG. 9C) and elastance (FIG. 9D) were measured using a flexiVent system. Lung weights (FIG. 9E) and body weights (FIG. 9F) are presented as bar graphs. Lung homogenates were tested for hydroxyproline (FIG. 9G), soluble collagen (FIG. 9H), pro-fibrogenic marker proteins (FIG. 9I) and mRNAs (FIG. 9J). Bars indicate mean±SD. Statistical significance (*P<0.05, **P<0.01, ***P<0.001 and ****P<0.0001) was assessed by one-way ANOVA with Turkey's multiple comparison. fLfs isolated from IPF lungs treated with PBS or recombinant full length M9 (rM9^FL) protein (2 μg/ml) for 48 h in vitro were tested for pro-fibrogenic proteins (FIG. 9L). fLfs (from IPF lungs) treated with PBS or extracellular domain of rM9^FL protein (rM9^ECD) as in FIG. 9L were tested for pro-fibrogenic proteins (FIG. 9N). The survival the mice treated with rM9^FL is shown FIG. 9M.
FIGS. 10A-10K. UNC5A (“U5”) peptide/protein mitigated BLM-induced pulmonary fibrosis. Mice exposed to saline or 1.0 U/kg BLM by intratracheal instillation were treated with or without U5 peptide (50 residues, SEQ ID NO: 7) (10 mg/kg/d) and full length U5 protein (SEQ ID NO: 5) (7.5 mg/kg/d) via IP injection daily for 7 days starting d14 after BLM injury. FIG. 10A: Representative micro-CT images at d21 after BLM exposure. FIG. 10B: Lung volumes were measured by quantitative-CT renditions. Lung compliance (FIG. 10C) and elastance (FIG. 10D) were measured using a flexiVent system. Lung weights (FIG. 10E) and body weights (FIG. 10F) are presented as bar graphs. Lung homogenates were tested for hydroxyproline (FIG. 10G), soluble collagen (FIG. 10H), pro-fibrogenic marker proteins (FIG. 10I) and mRNAs (FIG. 10J). Bars indicate mean±SD. Statistical significance (*P<0.05, **P<0.01, ***P<0.001 and ****P<0.0001) was assessed by one-way ANOVA with Turkey's multiple comparison.
FIGS. 11A-11K. ALG5 (“A5”) protein mitigated BLM-induced pulmonary fibrosis. Mice exposed to saline or 1.0 U/kg BLM by intratracheal instillation were treated with or without A5 protein (SEQ ID NO: 9) (7.5 mg/kg/d) via IP injection daily for 7 days starting d14 after BLM injury. FIG. 11A: Representative micro-CT images at d21 after BLM exposure. FIG. 11B: Lung volumes were measured by quantitative-CT renditions. Lung compliance (FIG. 11C) and elastance (FIG. 11D) were measured using a flexiVent system. Lung weights (FIG. 11E) and body weights (FIG. 11F) are presented as bar graphs. Lung homogenates were tested for hydroxyproline (FIG. 11G), soluble collagen (FIG. 11H), pro-fibrogenic marker proteins (FIG. 11I) and mRNAs (FIG. 11J). Bars indicate mean±SD. *P<0.05, **P<0.01, ***P<0.001 and ****P<0.0001 were obtained by one-way ANOVA with Turkey's multiple comparison.
FIGS. 12A-12E. WT mice with BLM-PF were treated with or without rM9^ECD (1.5 mg/kg) via intratracheal (IT) instillation daily for 7 d starting d 14 after BLM. Survival (FIG. 12A), body weights (FIG. 12B), lung volumes (FIG. 12C) and lung weights (FIG. 12D) were measured on d 21 post-BLM. Lung homogenates were tested for soluble collagen (FIG. 12E).
FIGS. 13A-13B. FIG. 13A: fLfs (IPF) treated with PBS or M9^mAb (2 μg/ml) or control IgG, tested for pro-fibrogenic proteins (i) and mRNAs (ii). FIG. 13B: WT mice with BLM-PF were left untreated, or intraperitoneal (IP) injected with control IgG or M9^mAb (2.5 mg/kg) daily for 7 d starting 14 d after IT BLM. Body weights (i) and total lung hydroxyproline (ii), and soluble collagen (iii) were measured. […]

B1: A5 protein: recombinant full length human ALG5 protein (SEQ ID NO: 9) (protein, listed as Homo sapiens)
chain: MAPLLLQLAVLGAALAAAALVLISIVAFTTATKMPALHRHEEEKFFLNAKGQKETLPSIWDSPTKQLSVVVPSYNEEKRLPVMMDEALSYLEKRQKRDPAFTYEVIVVDDGSKDQTSKVAFKYCQKYGSDKVRVITLVKNRGKGGAIRMGIFSSRGEKILMADADGATKFPDVEKLEKGLNDLQPWPNQMAIACGSRAHLEKESIAQRSYFRTLLMYGFHFLVWFLCVKGIRDTQCGFKLFTREAASRTFSSLHVERWAFDVELLYIAQFFKIPIAEIAVNWTEIEGSKLVPFWSWLQMGKDLLFIRLRYLTGAWRLEQTRKMN
BLM-induced pulmonary fibrosis (overall): mitigated
BLM-induced pulmonary fibrosis (overall) (listed as A5^FL): mitigated
BLM-induced pulmonary fibrosis (overall) (listed as ALG5 (A5) Protein): Mitigated
BLM-induced fibrogenic marker proteins (Col1, FN, TN-C, α-SMA) in whole lung homogenates: inhibition
body weight: improvement
collagen and other extracellular matrix deposits (Trichrome staining of lung sections): reduction
fibrogenic marker transcripts in whole lung homogenates: inhibition
lung weight: reduction
lung compliance: improved
lung elastance: improved
whole lung total hydroxyproline: reduction

B2: A5^ECD: recombinant extracellular domain of A5 (ECD of hALG5) (protein, listed as Homo sapiens)
chain: MTTATKMPALHRHEEEKFFLNAKGQKETLPSIWDSPTKQLSVVVPSYNEEKRLPVMMDEALSYLEKRQKADPAFTYEVIVVDDGSKDQTSKVAFKYCQKYGSDKVRVITLVKNRGKGGAIRMGIFSSRGEKILMADADGATKFPDVEKLEKGLNDLQPWPNQMAIACGSRAHLEKESIAQRSYFRTLLMYGFHFLVWFLCVKGIRDTQCGFKLFTREAASRTFSSLHVERWAFDVELLYIAQFFKIPIAEIAVNWTEIEGSKLVPFWSWLQMGKDLLFIRLRYLTGAWRLEQTRKMN
BLM-induced pulmonary fibrosis (overall): mitigated

B3: U5A protein: recombinant full length human UNC5A protein (SEQ ID NO: 5) (protein, listed as Homo sapiens)
chain: MAVRPGLWPALLGIVLAAWLRGSGAQQSATVANPVPGANPDLLPHFLVEPEDVYIVKNKPVLLVCKAVPATQIFFKCNGEWVRQVDHVIERSTDGSSGLPTMEVRINVSRQQVEKVFGLEEYWCQCVAWSSSGTTKSQKAYIRIAYLRKNFEQEPLAKEVSLEQGIVLPCRPPEGIPPAEVEWLRNEDLVDPSLDPNVYITREHSLVVRQARLADTANYTCVAKNIVARRRSASAAVIVYVDGSWSPWSKWSACGLDCTHWRSRECSDPAPRNGGEECQGTDLDTRNCTSDLCVHTASGPEDVALYVGLIAVAVCLVLLLLVLILVYCRKKEGLDSDVADSSILTSGFQPVSIKPSKADNPHLLTIQPDLSTTTTTYQGSLCPRQDGPSPKFQLTNGHLLSPLGGGRHTLHHSSPTSEAEEFVSRLSTQNYFRSLPRGTSNMTYGTFNFLGGRLMIPNTGISLLIPPDAIPRGKIYEIYLTLHKPEDVRLPLAGCQTLLSPIVSCGPPGVLLTRPVILAMDHCGEPSPDSWSLRLKKQSCEGSWEDVLHLGEEAPSHLYYCQLEASACYVFTEQLGRFALVGEALSVAAAKRLKLLLFAPVACTSLEYNIRVYCLHDTHDALKEVVQLEKQLGGQLIQEPRVLHFKDSYHNLRLSIHDVPSSLWKSKLLVSYQEIPFYHIWNGTQRYLHCTFTLERVSPSTSDLACKLWVWQVEGDGQSFSINFNITKDTRFAELLALESEAGVPALVGPSAFKIPFLIRQKIISSLDPPCRRGADWRTLAQKLHLDSHLSFFASKPSPTAMILNLWEARHFPNGNLSQLAAAVAGLGQPDAGLFTVSEAEC
BLM-induced pulmonary fibrosis (overall) (listed as Full Length U5A Protein): Mitigated
BLM-induced pulmonary fibrosis (overall) (listed as U5a^FL): mitigated
BLM-induced pulmonary fibrosis (overall) (listed as U5 protein): mitigated
BLM-induced fibrogenic marker proteins (Col1, FN, TN-C, α-SMA) in whole lung homogenates: inhibition
body weight: improvement
collagen and other extracellular matrix deposits (Trichrome staining of lung sections): reduction
fibrogenic marker transcripts in whole lung homogenates: inhibition
lung weight: reduction
lung compliance: improved
lung elastance: improved
whole lung total hydroxyproline: reduction
